Measurements: the supplement of paper PMC7125110
± gives the standard error. Fewer inactive variants are shown than the library holds.

B1: glmS ribozyme (parent)
chain: AUAAAAGCGCCAGAACUACAGAAAUGUAGUUGACGAGGAGGAGGUUUAUCGAAUUUUCGGCGGAUGCCUCCAAA

Key:
Conditions in all cases: with glucosamine-6-phosphate
glucosamine-6-phosphate [1] = variants of: B1; assay: self-cleavage kobs at 640 uM GlcN6P; higher = faster cleavage; RNA array
Outline: (§1)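 Tracking of barcoded ribozyme variants used a hybridised Cy3 probe at 37 °C, after in situ transcription by E. coli RNA polymerase on sequenced MiSeq chips. The flowed solution held 40 μM to 10 mM glucosamine-6-phosphate in HEPES/KCl/Mg(OAc)2 buffer, and imaging ran over ~14 h. kobs was taken from exponential decay fits of normalised per-tile medians, and kcat and KM from weighted Michaelis–Menten fits.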

glucosamine-6-phosphate [2] = variants of: B1; assay: self-cleavage kobs at 2500 uM GlcN6P; higher = faster cleavage; RNA array
Outline: as §1

glucosamine-6-phosphate [3] = variants of: B1; assay: self-cleavage kobs at 10000 uM GlcN6P; higher = faster cleavage; RNA array
Outline: as §1

Variant | self-cleavage kobs at 640 uM GlcN6P (glucosamine-6-phosphate [1]) [s⁻¹] | self-cleavage kobs at 2500 uM GlcN6P (glucosamine-6-phosphate [2]) [s⁻¹] | self-cleavage kobs at 10000 uM GlcN6P (glucosamine-6-phosphate [3]) [s⁻¹]
AUAAAAUCGCCAGAACUACAGAAAUGUAGUCGACGAGGAGGAGGUUUAUGGAAUUUUCGGCGGAUGCCUCCAAA | 0.000324 ± 0.00016 |  | 
AUAAAAGAGCCAGAACUACAGAAAUGUAGUUGACGAGGAGGAGCUAUAUCGAAUUUUCGGCGGAUGCCUCCAAA | < 1e-05 | < 1e-05 | 
AUAAAAGAGCGAGAACUACAGAAAUGUAGUUGACGAGGAGGAGGUUUAUCGAAUUUUCCGUGGAUGCCUCCAAA | < 1e-05 | < 1e-05 | 
AUAAAAGGGCCAGAACUACAGAAAUGUAGUUGUCGAGGAGUAGGUUUAUCGAAUUUUCGGCGGAUGCCUCCAAA | < 1e-05 |  | 
AUAAAAGAGACAGAACUACAGAAAUGUAGUUGACGAGGAGGGGGUUUAUCGAAUUUUCGUCGGAUGCCUCCAAA | < 1e-05 | < 1e-05 | 
AUAAAAGGGCCAGAACUACAGAAAUGUAGUUGACGUGGAGGAGGUUUAUCGAAUUUUCGGCGGAUGCCUUCAAA | < 1e-05 |  | 
AUAAAAGAGCCAGAACUACAGAAAUGUAGUUGGAGAGGAGGAGGUUUAUCGAAUUUUCGGCGGAUGCCUCCAAA | < 1e-05 |  | 
AUAAAAGAGCCAAAACUACAGAAAUGUAGUUGACGAUGAGGAGGUUUAUCGAAUUUUCCGCGGAUGCGUCCAAA | 0.000781 ± 0.00025 |  | 
AUAAAAGAGCCAGAACUACAGAAAUGUAGUUGAUGUGGAGGAGGUUUAUCGAAUUUUCUGCAGAUGCCUCCAAA | < 1e-05 |  | 
AUAAAAUCGCCAGAACUACAGAAAUGUAGUUGACGAGGAGGAGGUAUAUCGAAUUUUCGGCGGAUGCUUCCAAA | < 1e-05 | < 1e-05 | 
AUAAAAGGGCCUGAACUACAGAAAUGUAGUUGACGCGGAGGAGGUUUAUCGAAUUUUCGGCGGAUGCCUCCAAA | < 1e-05 |  | 
AUAAAAGAGCCAGAACUACAGAAAUGUAGUUGACGAGGAGGACGUUUAUCGAAUUUUCGGAGGAUGCCUCCAAA | < 1e-05 |  | 
AUAAAAGAACCAUAACUACAGAAAUGUAGUUGACGAGGAGGAGGUUUAUCGAAUUUUCGGCGGAUGCCUCCAAA | < 1e-05 |  | 
AUAAAAGAGCCAGAACUACAGAAAUGUAGUAGAUGAGGAGGAGGUUUAUCGAAUUUUCGCCGGAUGCCUCCAAA | < 1e-05 |  | 
AUAAAAGAGCCAGAACUACAGAAAUGUAGUUCACGAGGAGGAGGUUUAUCGAAUUUUCGGCGGAUGCCUCCAAA | < 1e-05 | < 1e-05 | < 1e-05
AUAAAAUCGCCAGAACUACAGAAAUGUAGUUGACGAGGAGGAGGUUUAUCGAAUGUCCGGCGGAUGCCUCCAAA | < 1e-05 | < 1e-05 | < 1e-05
AUAAAAUCGCCAGAACUACAGAAAUGUAGAUGACGAGGAGGAGGUUUAUCAAAUUUUCGGCGGAUGCCUCCAAA | < 1e-05 |  | 
AUAAAAGAGCCAGAACUACAGAAAUGUAGUUGACAAGGAGGAGGUUUAUCGAAUUUUCAGCGGAUGCCUUCAAA | < 1e-05 | < 1e-05 | 
AUAAAAGGGCCAGAUCUACAGAAAUGUAGUUGACGAGGAGGAGGUUUAUCGAAUUCUCGGCGGAUGCCUCCAAA | < 1e-05 | < 1e-05 | < 1e-05
AUAAAAGGGCCAGUACUACAGAAAUGUAGUUGACGAGGAGGGGGUUUAUCGAAUUUUCGGCGGAUGCCUCCAAA | < 1e-05 |  | 
AUAAAAUCGCCAGAACUACAGAAAUGUAGUUGACUAGGAGGGGGUUUAUCGAAUUUUCGGCGGAUGCCUCCAAA | < 1e-05 | < 1e-05 | 
AUAAAAGAGCCAGAACUACAGAAAUGUAGUUGACGAGGAGGAGGUUUAUCGAGUUUUCGGCGUAUGCCUCCAAA | < 1e-05 |  | 
AUAAAAGGGCCAGAGCUACAGAAAUGUAGUUGCCGAGGAGGAGGUUUAUCGAAUUUUCGGCGGAUGCCUCCAAA | < 1e-05 | < 1e-05 | 
AUAAAAGAGCCAGAACUACAGAAAUGUAGUCAACGAGGAGGAGGUUUAUCGAAUUUUCGGCGGAUGCCUCCAAA | < 1e-05 |  | 
AUAAAAGAGCCAGGACUACAGAAAUGUAAUUGACGUGGAGGAGGUUUAUCGAAUUUUCGGCGGAUGCCUCCAAA | < 1e-05 | < 1e-05 | 

Variant | self-cleavage kobs at 640 uM GlcN6P (glucosamine-6-phosphate [1]) [s⁻¹] | self-cleavage kobs at 2500 uM GlcN6P (glucosamine-6-phosphate [2]) [s⁻¹] | self-cleavage kobs at 10000 uM GlcN6P (glucosamine-6-phosphate [3]) [s⁻¹]
AUAAAAGGGCCAGAAUUACAGAAAUGUAGUUGACGAGGAGGAGGUUUAUCGAAUUUACGGCGGAUGCCUCCAAA | < 1e-05 | < 1e-05 | 
AUAAAAGAGCCAGAACUACAGAAAUGUAGUUGACGAGGAGGAGGUUUGUCGAUUUUUCGGCGGAUGCCUCCAAA | < 1e-05 | < 1e-05 | 
AUAAAAGGGUCAGGACUACAGAAAUGUAGUUGAAGAGGAGGAGGUUUAUCGAAUUUUCGGCGGAUGCCGCCAAA | 0.000745 ± 0.00024 | < 1e-05 | 
AUAAAAUCGCCAGAACUACAGAAAUGUAGUUGACGAGGACGAGGUUUAACGAAUUUUCGGCGGAUGCCUCCAAA | < 1e-05 |  | 
AUAAAAGGGCCAGAACUACAGAAAUGUAGUUGACGAGGAGGAGGUUUAUGGUAUUUUCGGCGGAUGCCUCCAAA | < 1e-05 |  | 
AUAAAAGAGCCCGAACUACAGAAAUGUAGUUGUCGAGGAGGAGGUUUAUCGAAUUUUCGGCGGGUGCCUCCAAA | < 1e-05 | < 1e-05 | 
AUAAAAUCGCCAGAACUACAGAAAUGUAGAUGACGAGGAGGAGGUUUAUCGAAUUUUCGGCGAAUGCCUCCAAA | < 1e-05 |  | 
AUAAAAUCGCCAGAACUACAGAAAUGUAGUUGACGAGGAGGAUGUUUAUCGAAUUUUCGGCGGAUGGCUCCAAA | < 1e-05 |  | 
AUAAAAGAGCCAGAACUACAGAAAUGUAGUUGACGAGGAGGAGGUUUAUCGAAUUUUCGGCGGAUGCCACCAAA | 0.00169 ± 0.00074 |  | 
AUAAAAUCGCCAGAACUACAGAAAUGUAGUUGACGAGGAGGAGGUUUAUCGAAUUUUCGGCGGAUAUCUCCAAA | < 1e-05 | < 1e-05 | 
AUAAAAGAGGCAGAGGUACAGAAAUGUAGUUGACGAGGAGGAGGUUUAUAGAAUUUUCGGCGUAUGCCUCCAAA | < 1e-05 |  | 
AUAAAAGGGCCAGAACUACAGAAAUGUAGUUGACGAGGUGGAGGUGUAUCGAAUUUUCGGCGGAUGCCGCCAAA | < 1e-05 | < 1e-05 | 
AUAAAAGGGCCAGACUUACAGAAAUGUAGUUGACGAGGAGGAGGUUUAUCGAAUUUUCGGCGGAUGCCUCCAAA | < 1e-05 |  | 
AUAAAAGAGCCAGAACUACAGAAAUGUAGUUGACGAUGAGGAGGUUUAUCGGAUUUUCGGCGGAUGCCUGCAAA | 0.000115 ± 5.1e-05 |  | 
AUAAAAGGGCCGGAACUACAGAAAUGUAGUUGACGAGGAGGAGGUUUACCGAAUUUUCGGCGGAUGCCUCCAAA | < 1e-05 |  | 
AUAAAAUCGCCAGAACUACAGAAAUGUAGUUGACGAGGAUGAGGUUUAUGGAAUUUUCGGCGGAUGCCUCCAAA | < 1e-05 | < 1e-05 | 
AUAAAAUCGCCAGAACUACAGAAAUGUAGUUGACUAGGAGGAGGUUUAUCGAAUUUUUGGCGGAUGCCUAUAAA | < 1e-05 |  | 
AUAAAAGGGCUAGAACUACAGAAAUGUAGUUUACGAGGAGGAGGUUUAUCGAAUUUUCUGCGGAUGCCUCCAAA | < 1e-05 | < 1e-05 | 
AUAAAAGAGCCAGAACUACAGAAAUGUAGUUGACGAGGAGGAGGUUUAGCGAAUUUUCGGCGGAUGCGUCCAAA | 0.000875 ± 0.00033 |  | 
AUAAAAGGGACAGAACUACAGAAAUGUAGUUGACGAGGAGAAGGUUUAUCGAAUUUUCGGCGGAUGCCUCCAAA | < 1e-05 | < 1e-05 | 
AUAAAAGAGCCAGAACUACAGAAAUGUAGUAGACGAGCAUGAGGUUUAUGGAAUUUUCGCCGGAUGCCUCAAAA | < 1e-05 |  | 
AUAAAAUCGCCAGAACUACAGAAAUGUAGUUGACGAGAAGGAGUUUUAUCGAAUUUUCGGCGGAUGCCUCCAAA | < 1e-05 |  | 
AUAAAAGAGCCAGAGCUACAGAAAUGUAGUUGACGAGGAGGAGAUUUAUCGAAUUUUCGGUGGAUGCCUCAAAA | < 1e-05 | < 1e-05 | 
AUAAAAGGGCCAGAGUUACAGAAAUGUAGUUGACGAGGAGGAGGGUUAACGAAUUUUCGGCGGAUGCCUCCAAA | < 1e-05 | < 1e-05 | 
